Numbering of substitutions follows the chain as printed.
B1: SC113.36 (antibody, mouse IgG1, V domains shown)
VH: QVQLKESGPDLVAPSQSLSITCTVSGFSLTSYGVHWVRQPPGKGLEWLGVIWAGGFTNYNSALMSRLSISKDNSKSQVFLKMSSLQTDDTAMYYCVREKDYRYSHYFDYWGQGTTLTVSS
VL: DIVMSQSPSSLAVSVGEKVTLSCKSSLSLLYSSNQENYLAWYQQKPGQSPKLLIYWASTRESGVPDRFTGSGSGTDFTLTISSVKAEDLAVYYCQQYYSYPRTFGGGTKLEIK
notes: mouse IgG1
B2: SC113.35 (antibody, mouse IgG2b, V domains shown)
VH: DVQLQESGPDLVKPSQSLSLTCTVTGYSITSGYGWHWIRQFPGNKLEWMGYIDYSGNNNYNPSLKSRISITRDTSKNQLFLQLNSVTAEDTATYFCARIYYDAMDYWGQGTSVTVSS
VL: DIVMTQSHKFMSTSVGERVSITCKASQDVGGAVAWYQQKPGQSPKLLIYWASTRHTGVPDRFTGSGSGTDFTLTISNVQSEDLADYFCQQYSSYPLTFGAGTKLDLK
notes: mouse IgG2b
B3: SC113.44 (antibody, mouse IgG1, V domains shown)
VH: QVQLQQSGPELVKPGTSVRISCKASGYTFTSYYIHWVKQRPGQGLEWIGWIYPRDVDTKYNETFKGKATLTADKSSSTAYIQLNSLTSEDSAVYFCARELTGTVFDYWGQGTTLTVSS
VL: QIVLSQSPAILSASPGEKVTMTCRASSSVTYMHWYQRKPGSSPKPWIYATSTLASGVPARFSGTGSGTSYSLTISRVEAEDAATYFCQQWSSNPLTFGAGTKLELK
notes: mouse IgG1
B4: SC113.46 (antibody, V domains shown)
VH: QIQLVQSGPELKKPGETVKISCKASGYSFTNYGMNWVKQTPRKGLKWVGWINTYTGETTYADDFKGRFAFSLETSASTAYLQINNLKNEDMATYFCARIYGYGWFAYWGQGTLVTVSA
VL: DIQMTQSPSSLSASLGERVSLTCRASQEISGYLSWLQQKPDGTIKRLIYAASTLDSGAPKRFSGSRSGSDYSLIISSLESEDFADYYCLQYSSYPYTFGGGTKLEIK
notes: mouse antibody, isotype N/A
B5: SC113.61 (antibody, V domains shown)
VH: EVQLVESGGDLVKPGGSLKLSCAASGFTFSNYGMSWVRQTPDKRLEWVATISNGGISTYYPDSVKGRFTISRDNAKNTLYLQMNSLKSEDTAMYYCVRPGRGYFDYWGQGTTLTVSS
VL: DIVMTQAAPSVPVTPGESVSISCRSNKSLLHSDGNTYLYWFLQRPGQSPQLLIYRMSNLASGVPDRFSGSGSGTAFTLRISRVEAEDVGVYYCMQHLEYPWTFGGGTKLEIK
modifications: MSD SULFO-TAG NHS Ester label on amines (sites not given)
notes: Murine hybridoma antibody, sulfo-tagged for use as detection antibody; The label may sit on either chain; also called SC113.61 detection antibody
B6: SC113.70 (antibody, mouse IgG2b, V domains shown)
VH: DVQLQESGPDLVKPSQSLSLTCTVTGYSITSGYTWHWIRQFPGNKLEWMGYIIYSGGTNYNPSLKSRISITRDTSKNQFFLQLNSVTPEDTATYYCASLLRPLDYWGQGTTLTVSS
VL: B5 VL with N26S, D33N, N35D, Y37F, W101F, G105A, I111L
notes: mouse IgG2b
B7: SC113.51 (antibody, mouse IgG2a, V domains shown)
VH: B1 VH with T21I, P40S, F56L, S83N, H105Y
VL: B1 VL
notes: mouse IgG2a
B8: SC113.57 (antibody, V domains shown)
VH: QVQLKQSGPGLVPPSQSLSISCTVSGFSLTTYGVHWVRQSPGKGLEWLGVIWSGGTTDDNAAFISRVSITKDNSKSQVFFKMNSLQADDTAIYYCAKNSYYGNLHYYTMDYWGQGTSVTVSS
VL: not shown
notes: Murine hybridoma antibody with kappa light chain; also called SC113.57 capture antibody
B9: SC113.201 (antibody, V domains shown)
VH: QVQLKQSGPSLVQPSQSLSITCTVSGFSLTNYGVHWVRQSPGKGLEWLGVIWRGGGTDSNAAFMSRLTITKDNSKSQVFFKMSSLQADDTAIYYCAKNTRYDARGYYAMDYWGQGTSVTVSS
VL: not shown
B10: huSC113.57 (antibody, V domains shown)
VH: QVTLKESGPVLVKPTETLTLTCTVSGFSLSTYGVHWIRQPPGKALEWLAVIWSGGTTDDNAAFISRVTISKDNSKSQVVLTMTNMDPVDTATYYCARNSYYGNLHYYTMDYWGQGTTVTVSS
VL: EIVLTQSPATLSLSPGERATLSCRASESVDSYGISFLNWYQQKPGQAPRLLIYAASNQGSGIPARFSGSGSGTDFTLTISSLEPEDFAVYYCQQSKEVPWTFGGGTKVEIK
notes: also called hSC113.57 (humanized SC113.57)
B11: SC113.219 (antibody, V domains shown)
VH: QVQLKQSGAELVRPGASVKLSCRASGYTFTDFYINWVKQRPGQGLEWIARIYPGSGNTHYNENFKGKATLTAEKSSSTAYMQLSSLTSEDSAVYFCAREVWDAMDHWGQGTSVTVSS
VL: SIVMTQSPKSMSISVGERVTLSCKASENVGTYVSWYQQKPEQSPKLLIYGASNRYTGVPDRFTGSGSSAEFTLTISSVQAEDLADYYCGQSSSFPIFTFGTGAKLEIK
B12: SC113.153 (antibody, V domains shown)
VH: QVQLKQSGPGLVQPSQSLSITCTVSGFSLTSYGVHWVRQSPGKGLEWLGVIWSGGSTDDNAAFISRLSISKDNSKSQVFFKMNSLQADDTAIYYCARNYYYDGRYYAMDYWGQGTSVTVSS
VL: DIVLTQSPASLAVSLGQRATISCRASESVEYYGTSLMQWYQQKPGQPPKLLIYVASNVESGVPVRFSGSGSGTDFSLNIHPVEEDDIAMYFCQQSRKVPWTFGGGTKLEIK
notes: Murine hybridoma antibody
B13: SC113.148 (antibody, V domains shown)
VH: B12 VH with L11P, L67M, S70T, F80L, I92K, D102E, A107V, T118I
VL: B12 VL with A9V, V54A, V64A
B14: SC113.121 (antibody, V domains shown)
VH: EVQLQQSGAELVKPGASVNLSCTASGFNIKDYYMHWMKQRPEQGLEWIGRIDPENGETRYAPKFQDKATITADTSSNTAYLQLRSLTSEDTAIYYCGRLDFYFDFWGQGTTLTVSS
VL: B3 VL with T30S, R37Q, T52N, T64S, F86Y, L95P, A99S, L105I
B15: SC113.150 (antibody, V domains shown)
VH: B14 VH with N19K, M34L, A61G, D66G, T74A, F105Y
VL: QIVLSQSPAILSASPGERVTMTCRASSSVNYIHWYQQKPGSSPKPWIYATSNLASGVPARFSGSGSGTSYSLTISRMEAEDAATYYCQQWSSNPPTFGSGTKLAIK
B16: SC113.167 (antibody, V domains shown)
VH: B14 VH with N19K, M37V, E46Y, N55A, K63N, D66G, G97A, F105S
VL: B15 VL with R18K, N30S, I32M, A59G, M77V, A82T, S91F, S92T, A104E
B17: SC113.133 (antibody, V domains shown)
VH: QVQLQQSGAELVRPGSSVKISCKASGYAFSSSWINWVKQRPGQGLEWIGQIYPGDGDTNYNGKFKGKATLTADKSSNTAYLQLNSLTSEDSAVYFCARTPIFAYWGQGTLVTVSA
VL: B4 VL with S34T, T53I, A58V, I74T, S92A, Y96W

biological target: T1, hTNFSF9-His (monomeric human TNFSF9 extracellular domain with 9x-Histidine tag) (human, UniProt P41273 50-254); assay: SPR (Biacore)
T1 construct: also called hTNFSF9-His protein; monomeric hTNFSF9-His antigen
T1 sequence (P41273 other isoform, or with tags, fused parts or gaps): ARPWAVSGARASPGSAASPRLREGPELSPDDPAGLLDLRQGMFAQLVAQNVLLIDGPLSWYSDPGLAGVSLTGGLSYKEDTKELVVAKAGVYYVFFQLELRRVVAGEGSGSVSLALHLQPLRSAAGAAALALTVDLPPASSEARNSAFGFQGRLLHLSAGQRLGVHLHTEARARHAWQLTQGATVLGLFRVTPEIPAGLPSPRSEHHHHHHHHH

For B1, which Kd is on record?
The Kd was 3 nM.

How did the Kd turn out when B2 was run?
The Kd was 4 nM.

With B3 as the binder, how does the Kd read?
Its Kd is 9 nM.

Which Kd does the source give for B4 here?
The Kd was 4 nM.

biological target: T2, cynomolgus TNFSF9 (cTNFSF9) protein, soluble recombinant (cynomolgus); assay: SPR (Biacore)
T2 construct: extracellular domain; also called cynomolgus TNFSF9 protein

Which Kd does the source give for B1 here?
The Kd was 12 nM.

B2 was tested. Which Kd did it give?
Its Kd is 10 nM.

How did the Kd turn out when B3 was run?
Its Kd is 13 nM.

For B4, which Kd is on record?
Its Kd is 16 nM.

biological target: T1, hTNFSF9-His (monomeric human TNFSF9 …); assay: SPR (Biacore); remark: another data set of the same source

How did the Kd turn out when B5 was run?
The Kd was 6 nM.

For B6, which Kd is on record?
Its Kd is 11 nM.

B7 was tested. Which Kd did it give?
The Kd was 3 nM.

Which Kd does the source give for B8 here?
Its Kd is 5 nM.

biological target: T2, cynomolgus TNFSF9 (cTNFSF9) protein, …; assay: SPR (Biacore); remark: another data set of the same source

With B5 as the binder, how does the Kd read?
The Kd was 11 nM.

B6 was tested. Which Kd did it give?
Its Kd is 81 nM.

Which Kd does the source give for B7 here?
Its Kd is 28 nM.

B8 was tested. Which Kd did it give?
Its Kd is 4 nM.

biological target: T3, human TNFSF9 (hTNFSF9), full length, overexpressed on HEK293T cells (human, UniProt P41273 1-254); assay: cell-based or functional assay

Which “% live cells, Fab-saporin killing, 250 pM antibody” value (from here on “% live cells, Fab-saporin killing”) does the source give for B1 here?
The value was 17.8%.

Which “% live cells, Fab-saporin killing” value does the source give for B2 here?
Its value is 28.5%.

How did the “% live cells, Fab-saporin killing” value turn out when B3 was run?
The value was 10.8%.

How did the “% live cells, Fab-saporin killing” value turn out when B4 was run?
The value was 28.3%.

biological target: T4, cynomolgus TNFSF9 (cTNFSF9), full length, overexpressed on HEK293T cells (cynomolgus); assay: cell-based or functional assay

B1 was tested. Which “% live cells, Fab-saporin killing” value did it give?
Its value is 102%.

How did the “% live cells, Fab-saporin killing” value turn out when B2 was run?
Its value is 69.6%.

Which “% live cells, Fab-saporin killing” value does the source give for B3 here?
Its value is 33.9%.

B4 was tested. Which “% live cells, Fab-saporin killing” value did it give?
Its value is 31.3%.

biological target: T3, human TNFSF9 (hTNFSF9), full length, …; assay: cell-based or functional assay; remark: another data set of the same source

B5 was tested. Which “% live cells, Fab-saporin killing” value did it give?
Its value is 23%.

For B6, which “% live cells, Fab-saporin killing” value is on record?
The value was 95.1%.

B7 was tested. Which “% live cells, Fab-saporin killing” value did it give?
The value was 15.5%.

Which “% live cells, Fab-saporin killing” value does the source give for B8 here?
The value was 11.6%.

biological target: T4, cynomolgus TNFSF9 (cTNFSF9), full …; assay: cell-based or functional assay; remark: another data set of the same source

Which “% live cells, Fab-saporin killing” value does the source give for B5 here?
The value was 29%.

B6 was tested. Which “% live cells, Fab-saporin killing” value did it give?
Its value is 101%.

For B7, which “% live cells, Fab-saporin killing” value is on record?
The value was 108%.

B8 was tested. Which “% live cells, Fab-saporin killing” value did it give?
The value was 9.3%.

biological target: T5, human TNFSF9 (R&D Systems; #2295-4L-025/CF) (human, UniProt P41273 71-254, limits assumed); assay: MSD ELISA: TNFSF9 + 1 ug/mL antibody, binding to coated TNFRSF9
T5 construct: also called TNFSF9 (ligand); TNFSF9 ligand
T5 sequence (P41273 71-254 limits assumed): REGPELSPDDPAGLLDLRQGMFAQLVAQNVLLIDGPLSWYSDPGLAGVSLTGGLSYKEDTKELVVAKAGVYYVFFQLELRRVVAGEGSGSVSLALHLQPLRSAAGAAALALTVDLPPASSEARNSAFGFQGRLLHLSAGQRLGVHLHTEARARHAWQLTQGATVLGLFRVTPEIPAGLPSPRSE

How did the “% inhibition of ligand receptor interaction” value (from here on “% inhibition”) turn out when B9 was run?
The value was -66%.

For B6, which “% inhibition” value is on record?
Its value is 46%.

For B10, which “% inhibition” value is on record?
The value was -38%.

How did the “% inhibition” value turn out when B1 was run?
The value was 23%.

For B11, which “% inhibition” value is on record?
Its value is -37%.

B12 was tested. Which “% inhibition” value did it give?
The value was -84%.

B13 was tested. Which “% inhibition” value did it give?
The value was -63%.

B8 was tested. Which “% inhibition” value did it give?
Its value is -35%.

biological target: T5, human TNFSF9 (R&D Systems; …); assay: as above; remark: another data set of the same source

With B5 as the binder, how does the “% inhibition” value read?
Its value is 48%.

Which “% inhibition” value does the source give for B7 here?
The value was 99%.

B2 was tested. Which “% inhibition” value did it give?
The value was 73%.

Which “% inhibition” value does the source give for B3 here?
Its value is 48%.

Which “% inhibition” value does the source give for B14 here?
Its value is 98%.

Which “% inhibition” value does the source give for B15 here?
Its value is 98%.

For B16, which “% inhibition” value is on record?
The value was 89%.

For B17, which “% inhibition” value is on record?
The value was 66%.

Source: patent US20190016812A1 (AbbVie / Abbott, published 2019)
